{"source": "the DeepSol protein solubility set", "data": [{"experiment": "soluble on expression in E. coli; label from the status in PepcDB or PDB records", "values": [{"sequence": "MKPTERRILLGRIVGAFGVKGELKLESWTEPRSAIFRYQPWIVRTPSGQESVLSGVRGRDQGKNLIAVFPDITDRDTVEAMHGTEIYVARSALPPPKPDEYYWVDLEGLQVETVEGVKLGTVSHLFSTGSNDVVVVRGDRERMIPFVLPEYVKSVDFEANLIVVDWDPDFLEHHHHHH", "soluble on expression in E. coli": "soluble"}, {"sequence": "MSLEALLSEDVKIIASALKAAIDKDRKSTSKREAETGIRYYNHENDIMNNRIFYVDDEGVLREDKYASNVRIPHGFFPEIVDQKTQYLLSNPVEYETENEELKEYLAEYYNSEFQVVLQELVEGSSQKGFEYVYARTNAEDRLCFQVADSLNVFGVYNEYNELQRICRHYITEIEKDGETVDIHHAEVWTDQNVYFFVAEDNKDYELDEAEPINPRPHVLAVDSDNESLLQRSYGQIPFYRLSNNKQETTDLKSIKALIDDYDLMNCFLSNNLQDFAEAIYVVSGFQGDDLSKLRQNVKSKKVVGTGSDGGLDVKTVTIPTEGRKTKMEIDKENIYKFGMAFDSTQVGDGNITNIVIKARYTLLNMKANKTEARLRALLEWMNKLVIDDINRRYTKAFDPTEVSFTFTREVMVNETDIVNNEKTEAETRKIILESILQVAPRLDDDNVLRLICEQFDLDWEDVKEALEEAEYTQGLTDNTDEEETAEGHHHHHH", "soluble on expression in E. coli": "soluble"}, {"sequence": "MGSDKIHHHHHHMADKRTEGSGKGGAKAAGKGGLGEVVLLSGGNPQIAKGYGDAPVQAYIAAMPGWKRAVGERLDAIVERTVPGVYKAVKWNSPFYGFEGEGWFLSFHCMTKYIKVAFFRGASLQPLPPGASKQKDVRYLDIYEDAPFDEARFADWVAQASRLPGERM", "soluble on expression in E. coli": "not soluble"}, {"sequence": "MGPTQETYTIVRYQSGTFSKQLDEIVTESPITIKLNGEEYVTVVCTPNYIEDMVIGFLISEGIISSYNDVEELWVQKDNGIVHVKSSKVNPLYQTLYNKRYVTSCCGKGRQGFIFVNDAAKAKDLHDIHVKITPEECFYLMNTLQQSSTTFRQTGGVHNTALCDRNKILLSRMDIGRHNALDKIYGHCLRNDISVKGKIIAFSGRISSEILLKVSKIGCEIVLSKSAPTKLALQLAHDLGITVVGFIRNESCNIYTHPHRIDGYQSNN", "soluble on expression in E. coli": "not soluble"}, {"sequence": "MGGLQQRCLWEVVTPRLSGAASLNGEQRADVCVIGAGFTGLSAALHLLEAGRSVCVLEAYEVGHGGSGRNVGLINAGTWIPPDEVVATLGAEQGEKLNAVLGRAPALVMETIERLGIDCQLRREGTLHMSHNASGVADLQRRHAQWTRRGAPLELLTGAACHEACGTRRISAALLDRRAGTLNPMAYSRGLATAVVQRGGQLYQRSPVLALERQGALWAVRSSAGAVLAEQVVIASNAYTEGEWTNLRRHFFPGYYYQVASAPLHGAAAERILPHGQGSWDTRTVLSSIRRDAQGRLLLGSLGNGANKPAWFLRQWADRIQSHYFPDLGQVNWEYSWTGCIAFTPDHLMRLFEPAEGLLAVTGYNGRGVTTGTVVGKAFADYLLSGERATLPLPFSDMKPVPAARLRSCAYEMGFSLYHAGQCLRVVLLEHHHHHH", "soluble on expression in E. coli": "soluble"}, {"sequence": "MGSDKIHHHHHHMTQHPFISRVAVRNYKSIGYCDVNLRPLTYLVGHNGAGKSNFMDALHFVCDALSYSLDSALNERGGINEVRRRSGGHPTHFALRVEFVMQSGQAGRYGFVIGALKNGGYEVQREECVVAGIGKGPFFRIEKGKLRDSSETTFPSVTADRLALVAASGLTAFRPVFDALTAMGFYNLNPKLMRELQKPQDGRLLRPAGENIASVIGHLEKVAPAQMALIQEYLHSVAPMVHGVERKPIGPMETLEFRQDMAGSKHPWRFLAQNMSDGTLRALGVLSALLQGNVDYSPTLIGIEEPETALHPAASAALREALVRASETTQVLVTSHSPDLLDDHSIDADAVLAVVSEAGETKVAPLDEGSRQVMRDHLFSAGELLRMNQLAPDRASLEQQDKAASGDLFGETESV", "soluble on expression in E. coli": "not soluble"}, {"sequence": "ANSVQQQLEALEKSSGGRLGVALINTADNSQILYRADERFAMCSTSKVMAAAAVLKQSESDKHLLNQRVEIKKSDLVNYNPIAEKHVNGTMTLAELGAAALQYSDNTAMNKLIAHLGGPDKVTAFARSLGDETFRLDRTAPTLNTAIPGDPRDTTTPLAMAQTLKNLTLGKALAETQRAQLVTWLKGNTTGSASIRAGLPKSWVVGDKTGSGDYGTTNDIAVIWPENHAPLVLVTYFTQPEQKAERRRDILAAAAKIVTHGF", "soluble on expression in E. coli": "soluble"}, {"sequence": "MKQPFTQAIENAELAIRNADERNDIFSELLEGLGVGPVAGEVLLGGLNASPKLMQHAEQELIEEVQRRRQQQHQLQGVQGKRRKRPTMMRGMVILEHHHHHH", "soluble on expression in E. coli": "not soluble"}]}]}
